Measurements from patent publication US20260015399A1 (Boehringer Ingelheim, published 2026).
*1 amine or outer side, *2 acyl side, *3 side chain or, on linkers, in order; H or OH if unused. Side-chain parts run from the residue outwards. The star is where a group is joined. C18 diacid = O=C(O)CCCCCCCCCCCCCCCCC(=O)*; γGlu = O=C(O)[C@H](CCC(=O)[*:2])N[*:1]; Isovaleryl = CC(C)CC(=O)*; Ahx = NCCCCCC(=O)O

T1: human NPY2 receptor (human, UniProt P49146 1-381)
T1 construct: whole, on cells; also called hNPY2-R; hNPY2R
T1 sequence (looked up): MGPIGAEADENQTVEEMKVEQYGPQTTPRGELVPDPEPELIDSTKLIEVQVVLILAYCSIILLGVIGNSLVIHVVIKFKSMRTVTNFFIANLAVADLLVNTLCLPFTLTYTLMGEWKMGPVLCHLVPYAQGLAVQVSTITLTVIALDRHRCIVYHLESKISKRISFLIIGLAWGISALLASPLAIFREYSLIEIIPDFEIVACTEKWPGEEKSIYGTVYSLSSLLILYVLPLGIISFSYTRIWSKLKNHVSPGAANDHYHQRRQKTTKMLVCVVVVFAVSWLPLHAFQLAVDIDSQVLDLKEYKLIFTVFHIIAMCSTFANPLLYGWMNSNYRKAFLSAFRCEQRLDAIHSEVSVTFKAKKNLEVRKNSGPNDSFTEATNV

B1: Compound 169 (peptide)
peptide: Isovaleryl-APEK([Ahx-γGlu-C18 diacid])PEEDAEPEELQAYYVSLRHYYNWLTRQRY-NH2
SMILES: CC(C)CC(=O)N[C@@H](C)C(=O)N1CCC[C@H]1C(=O)N[C@@H](CCC(=O)O)C(=O)N[C@@H](CCCCNC(=O)CCCCCNC(=O)CC[C@H](NC(=O)CCCCCCCCCCCCCCCCC(=O)O)C(=O)O)C(=O)N1CCC[C@H]1C(=O)N[C@@H](CCC(=O)O)C(=O)N[C@@H](CCC(=O)O)C(=O)N[C@@H](CC(=O)O)C(=O)N[C@@H](C)C(=O)N[C@@H](CCC(=O)O)C(=O)N1CCC[C@H]1C(=O)N[C@@H](CCC(=O)O)C(=O)N[C@@H](CCC(=O)O)C(=O)N[C@@H](CC(C)C)C(=O)N[C@@H](CCC(N)=O)C(=O)N[C@@H](C)C(=O)N[C@@H](Cc1ccc(O)cc1)C(=O)N[C@@H](Cc1ccc(O)cc1)C(=O)N[C@H](C(=O)N[C@@H](CO)C(=O)N[C@@H](CC(C)C)C(=O)N[C@@H](CCCNC(=N)N)C(=O)N[C@@H](Cc1c[nH]cn1)C(=O)N[C@@H](Cc1ccc(O)cc1)C(=O)N[C@@H](Cc1ccc(O)cc1)C(=O)N[C@@H](CC(N)=O)C(=O)N[C@@H](Cc1c[nH]c2ccccc12)C(=O)N[C@@H](CC(C)C)C(=O)N[C@H](C(=O)N[C@@H](CCCNC(=N)N)C(=O)N[C@@H](CCC(N)=O)C(=O)N[C@@H](CCCNC(=N)N)C(=O)N[C@@H](Cc1ccc(O)cc1)C(N)=O)[C@@H](C)O)C(C)C
B2: Compound 171 (peptide)
peptide: Isovaleryl-APEK([Ahx-γGlu-C18 diacid])PEADASPEELQRYYVELRHYYNWLTRQRY-NH2
SMILES: CC(C)CC(=O)N[C@@H](C)C(=O)N1CCC[C@H]1C(=O)N[C@@H](CCC(=O)O)C(=O)N[C@@H](CCCCNC(=O)CCCCCNC(=O)CC[C@H](NC(=O)CCCCCCCCCCCCCCCCC(=O)O)C(=O)O)C(=O)N1CCC[C@H]1C(=O)N[C@@H](CCC(=O)O)C(=O)N[C@@H](C)C(=O)N[C@@H](CC(=O)O)C(=O)N[C@@H](C)C(=O)N[C@@H](CO)C(=O)N1CCC[C@H]1C(=O)N[C@@H](CCC(=O)O)C(=O)N[C@@H](CCC(=O)O)C(=O)N[C@@H](CC(C)C)C(=O)N[C@@H](CCC(N)=O)C(=O)N[C@@H](CCCNC(=N)N)C(=O)N[C@@H](Cc1ccc(O)cc1)C(=O)N[C@@H](Cc1ccc(O)cc1)C(=O)N[C@H](C(=O)N[C@@H](CCC(=O)O)C(=O)N[C@@H](CC(C)C)C(=O)N[C@@H](CCCNC(=N)N)C(=O)N[C@@H](Cc1c[nH]cn1)C(=O)N[C@@H](Cc1ccc(O)cc1)C(=O)N[C@@H](Cc1ccc(O)cc1)C(=O)N[C@@H](CC(N)=O)C(=O)N[C@@H](Cc1c[nH]c2ccccc12)C(=O)N[C@@H](CC(C)C)C(=O)N[C@H](C(=O)N[C@@H](CCCNC(=N)N)C(=O)N[C@@H](CCC(N)=O)C(=O)N[C@@H](CCCNC(=N)N)C(=O)N[C@@H](Cc1ccc(O)cc1)C(N)=O)[C@@H](C)O)C(C)C
B3: Compound 178 (peptide)
peptide: Isovaleryl-APEK([Ahx-γGlu-C18 diacid])PEAAATPEEIQRYYVALRHYYNWLTRQRY-NH2
SMILES: CC[C@H](C)[C@H](NC(=O)[C@H](CCC(=O)O)NC(=O)[C@H](CCC(=O)O)NC(=O)[C@@H]1CCCN1C(=O)[C@@H](NC(=O)[C@H](C)NC(=O)[C@H](C)NC(=O)[C@H](C)NC(=O)[C@H](CCC(=O)O)NC(=O)[C@@H]1CCCN1C(=O)[C@H](CCCCNC(=O)CCCCCNC(=O)CC[C@H](NC(=O)CCCCCCCCCCCCCCCCC(=O)O)C(=O)O)NC(=O)[C@H](CCC(=O)O)NC(=O)[C@@H]1CCCN1C(=O)[C@H](C)NC(=O)CC(C)C)[C@@H](C)O)C(=O)N[C@@H](CCC(N)=O)C(=O)N[C@@H](CCCNC(=N)N)C(=O)N[C@@H](Cc1ccc(O)cc1)C(=O)N[C@@H](Cc1ccc(O)cc1)C(=O)N[C@H](C(=O)N[C@@H](C)C(=O)N[C@@H](CC(C)C)C(=O)N[C@@H](CCCNC(=N)N)C(=O)N[C@@H](Cc1c[nH]cn1)C(=O)N[C@@H](Cc1ccc(O)cc1)C(=O)N[C@@H](Cc1ccc(O)cc1)C(=O)N[C@@H](CC(N)=O)C(=O)N[C@@H](Cc1c[nH]c2ccccc12)C(=O)N[C@@H](CC(C)C)C(=O)N[C@H](C(=O)N[C@@H](CCCNC(=N)N)C(=O)N[C@@H](CCC(N)=O)C(=O)N[C@@H](CCCNC(=N)N)C(=O)N[C@@H](Cc1ccc(O)cc1)C(N)=O)[C@@H](C)O)C(C)C
B4: Compound 177 (peptide)
peptide: Isovaleryl-APEK([Ahx-γGlu-C18 diacid])PEEDATPEELQQYYVSLRHYYNWLTRQRY-NH2
SMILES: CC(C)CC(=O)N[C@@H](C)C(=O)N1CCC[C@H]1C(=O)N[C@@H](CCC(=O)O)C(=O)N[C@@H](CCCCNC(=O)CCCCCNC(=O)CC[C@H](NC(=O)CCCCCCCCCCCCCCCCC(=O)O)C(=O)O)C(=O)N1CCC[C@H]1C(=O)N[C@@H](CCC(=O)O)C(=O)N[C@@H](CCC(=O)O)C(=O)N[C@@H](CC(=O)O)C(=O)N[C@@H](C)C(=O)N[C@H](C(=O)N1CCC[C@H]1C(=O)N[C@@H](CCC(=O)O)C(=O)N[C@@H](CCC(=O)O)C(=O)N[C@@H](CC(C)C)C(=O)N[C@@H](CCC(N)=O)C(=O)N[C@@H](CCC(N)=O)C(=O)N[C@@H](Cc1ccc(O)cc1)C(=O)N[C@@H](Cc1ccc(O)cc1)C(=O)N[C@H](C(=O)N[C@@H](CO)C(=O)N[C@@H](CC(C)C)C(=O)N[C@@H](CCCNC(=N)N)C(=O)N[C@@H](Cc1c[nH]cn1)C(=O)N[C@@H](Cc1ccc(O)cc1)C(=O)N[C@@H](Cc1ccc(O)cc1)C(=O)N[C@@H](CC(N)=O)C(=O)N[C@@H](Cc1c[nH]c2ccccc12)C(=O)N[C@@H](CC(C)C)C(=O)N[C@H](C(=O)N[C@@H](CCCNC(=N)N)C(=O)N[C@@H](CCC(N)=O)C(=O)N[C@@H](CCCNC(=N)N)C(=O)N[C@@H](Cc1ccc(O)cc1)C(N)=O)[C@@H](C)O)C(C)C)[C@@H](C)O
B5: Compound 170 (peptide)
peptide: Isovaleryl-APEK([Ahx-γGlu-C18 diacid])PEEDAAPEEIQRYYVSLRHYYNWLTRQRY-NH2
SMILES: CC[C@H](C)[C@H](NC(=O)[C@H](CCC(=O)O)NC(=O)[C@H](CCC(=O)O)NC(=O)[C@@H]1CCCN1C(=O)[C@H](C)NC(=O)[C@H](C)NC(=O)[C@H](CC(=O)O)NC(=O)[C@H](CCC(=O)O)NC(=O)[C@H](CCC(=O)O)NC(=O)[C@@H]1CCCN1C(=O)[C@H](CCCCNC(=O)CCCCCNC(=O)CC[C@H](NC(=O)CCCCCCCCCCCCCCCCC(=O)O)C(=O)O)NC(=O)[C@H](CCC(=O)O)NC(=O)[C@@H]1CCCN1C(=O)[C@H](C)NC(=O)CC(C)C)C(=O)N[C@@H](CCC(N)=O)C(=O)N[C@@H](CCCNC(=N)N)C(=O)N[C@@H](Cc1ccc(O)cc1)C(=O)N[C@@H](Cc1ccc(O)cc1)C(=O)N[C@H](C(=O)N[C@@H](CO)C(=O)N[C@@H](CC(C)C)C(=O)N[C@@H](CCCNC(=N)N)C(=O)N[C@@H](Cc1c[nH]cn1)C(=O)N[C@@H](Cc1ccc(O)cc1)C(=O)N[C@@H](Cc1ccc(O)cc1)C(=O)N[C@@H](CC(N)=O)C(=O)N[C@@H](Cc1c[nH]c2ccccc12)C(=O)N[C@@H](CC(C)C)C(=O)N[C@H](C(=O)N[C@@H](CCCNC(=N)N)C(=O)N[C@@H](CCC(N)=O)C(=O)N[C@@H](CCCNC(=N)N)C(=O)N[C@@H](Cc1ccc(O)cc1)C(N)=O)[C@@H](C)O)C(C)C
B6: Compound 179 (peptide)
peptide: Isovaleryl-APEK([Ahx-γGlu-C18 diacid])PEADASPEETQRYYVALRHYYNWLTRQRY-NH2
SMILES: CC(C)CC(=O)N[C@@H](C)C(=O)N1CCC[C@H]1C(=O)N[C@@H](CCC(=O)O)C(=O)N[C@@H](CCCCNC(=O)CCCCCNC(=O)CC[C@H](NC(=O)CCCCCCCCCCCCCCCCC(=O)O)C(=O)O)C(=O)N1CCC[C@H]1C(=O)N[C@@H](CCC(=O)O)C(=O)N[C@@H](C)C(=O)N[C@@H](CC(=O)O)C(=O)N[C@@H](C)C(=O)N[C@@H](CO)C(=O)N1CCC[C@H]1C(=O)N[C@@H](CCC(=O)O)C(=O)N[C@@H](CCC(=O)O)C(=O)N[C@H](C(=O)N[C@@H](CCC(N)=O)C(=O)N[C@@H](CCCNC(=N)N)C(=O)N[C@@H](Cc1ccc(O)cc1)C(=O)N[C@@H](Cc1ccc(O)cc1)C(=O)N[C@H](C(=O)N[C@@H](C)C(=O)N[C@@H](CC(C)C)C(=O)N[C@@H](CCCNC(=N)N)C(=O)N[C@@H](Cc1c[nH]cn1)C(=O)N[C@@H](Cc1ccc(O)cc1)C(=O)N[C@@H](Cc1ccc(O)cc1)C(=O)N[C@@H](CC(N)=O)C(=O)N[C@@H](Cc1c[nH]c2ccccc12)C(=O)N[C@@H](CC(C)C)C(=O)N[C@H](C(=O)N[C@@H](CCCNC(=N)N)C(=O)N[C@@H](CCC(N)=O)C(=O)N[C@@H](CCCNC(=N)N)C(=O)N[C@@H](Cc1ccc(O)cc1)C(N)=O)[C@@H](C)O)C(C)C)[C@@H](C)O

These binders were tested against T1, human NPY2 receptor (assay: RLB: displacement of 125I-PYY(1-36) from hNPY2R membranes).
B1 gave a Ki of 5.82 nM. B2 was tested, and the Ki was 2.83 nM. B3 gave a Ki of 3.39 nM. B4 was tested, and the Ki was 8.65 nM. B5 showed a Ki of 2.28 nM. In the case of B6, the Ki is reported as 0.89 nM.
